From patent US20100297047A1, “ESTERS OF GLYCEROL AND THEIR USES IN COSMETIC AND PHARMACEUTICAL APPLICATIONS” (BIOPHIL ITALIA S.P.A., priority 2007, published 2010) come the findings set out here.

This data set in a line: Solubilisation of poorly soluble active ingredients in the Olea europea triglycerides/diglycerides mixture. The format is physicochemical. An excerpt: Improved formulations have been prepared by solubilising lipophilic ingredients, which are known for their interesting cosmetic activity but also for their difficult usage due to their poor solubility and/or dispersion into common cosmetic matrixes.
Ceramides are major components (roughly 40%) of the lipidic layers of the epidermis barrier, which drive the balance between hydration and loss of water, having the important role of “cement” between the corneocytes, i.e. the brick cells forming the dermal layers. The high difficulty for the application of ceramides in cosmetics is their poor solubility: in order to solubilise them into esters, a heating step above 90° C. is normally required with possible damage of the ceramides.
The use of triglycerides/diglycerides mixture as a solubiliser has allowed the solubilisation of ceramide-3 also at high concentration (up to 50%) without excessive and long time heating steps, A liquid ingredient, easy to use by simple addition into the lipid phase of the cosmetic formulation, has been obtained so far.
Sericin is one of the two families of proteins constituting the pure silk secreted by the silkworm glands: its dimensions vary from 60 up to 500 kDa. […]

Take sericin: where the note is “in mixtures of triglycerides/diglycerides from olive, compared with other commonly used vehicles or solubilisers”, the “dissolution of high molecular weight sericin” value was “successfully dissolved”.

For the compound `CCCCCCCCCCCCCCCCCC(=O)N[C@@H](CO)[C@H](O)[C@H](O)CCCCCCCCCCCCCC` [ceramide-3], under “triglycerides/diglycerides mixture as solubiliser, without excessive and long time heating steps”, the “concentration at which ceramide-3 is solubilised” value is reported as “up to 50%”.
